Measurements: patent US20160041182A1 (Janssen / Centocor, published 2016)
Where a chain is given by its changes, count along the chain named.

B1: TP1KR9P62-D3 (designed binder)
chain: MLPAPKNLVVSRVTEDSARLSWTAPDAAFDSFAIEYFEDWWSGEAIVLTVPGSERSYDLTLKPGTEYSVSIRGVKGGYPSSPLSAIFTT
notes: also called TCL14-His fusion protein
B2: TP1KR9P61-G4 (designed binder)
chain: MLPAPKNLVVSRVTEDSARLSWTAPDAAFDSFAIEYFEDWWSGEAIVLTVPGSERSYDLTGLKPGTEYAVSIRGVKGGYPSAPLSAIFTT
notes: as for B1
B3: TP1KR9P62-C3 (designed binder)
chain: B2 chain with A69S, S71T, Y79P, A82S
notes: as for B1
B4: TP1KR9P62-E3 (designed binder)
chain: B2 chain with A33G, W40Y, S42T
notes: as for B1
B5: TP1KR9P61-E2 (designed binder)
chain: B2 chain with Y79M, A82P
notes: as for B1
B6: TP1KR9P61-A2 (designed binder)
chain: B2 chain with Y79M
notes: as for B1
B7: TP1KR9P61-A7 (designed binder)
chain: B2 chain with A69S, A82S
notes: as for B1
B8: TP1KR9P62-H10 (designed binder)
chain: B2 chain with A69S, Y79H, A82V
notes: as for B1
B9: TP1KR9P62-D8 (designed binder)
chain: B2 chain with A69G, Y79L, P80A, A82P
notes: as for B1
B10: TP1KR9P62-D4 (designed binder)
chain: B2 chain with A33G, E35I, S42A, A69G, Y79P, A82R
notes: as for B1
B11: TP1KR9P62-C6 (designed binder)
chain: B2 chain with Y57C, A69S, S71T, A82S
notes: as for B1
B12: TP1KR9P62-A2 (designed binder)
chain: B2 chain with P5L, R19H, F37S, W40Y, S42L, A69G, A82P
notes: as for B1

target: T1, mouse IL-17A (mouse, UniProt Q62386 26-158, limits assumed); test: SPR (ProteOn XPR-36), clone amine-coupled on chip, mIL-17A in solution, 1:1 Langmuir fit
T1 construct: In SPR it was injected in solution, and no biotinylation is mentioned there; also called mIL-17A; mIL17A
T1 sequence (looked up): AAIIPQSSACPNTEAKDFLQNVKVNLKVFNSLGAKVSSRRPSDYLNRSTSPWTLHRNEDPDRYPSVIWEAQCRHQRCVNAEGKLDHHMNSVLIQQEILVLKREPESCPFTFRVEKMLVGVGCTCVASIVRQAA
Description: The affinities of select molecules binding to mIL-17A were measured using surface Plasmon resonance using a ProteOn XPR-36 instrument (Bio-Rad). Purified molecules were directly immobilized on the chip via amine coupling with varying densities (100˜300 Rus) at pH 5.0 and a flow rate of 30 μL/min for 5 minutes mIL-17A at 100 nM diluted in a 3-fold concentration series was tested for their binding to different molecules on the chip surface. The dissociation phases for all concentrations of all samples was monitored for 1˜2 hours at a flow rate of 100 μL/min depending on their off-rate. A buffer sample was injected to monitor the baseline stability and the surface was not regenerated for further use. The response data for all concentration series for each of the different surfaces of the scaffold molecules selected from the TLC14 library were globally fit to a 1:1 simple langmuir binding model to extract estimates of the kinetic (kₒₙ, koff) and affinity (KD) constants. As summarized in Table 9, affinities of the scaffold molecules specifically binding mIL-17A were at a subnanomolar range. Sequences of select mIL-17A binders are shown in SEQ ID NOS: 85-96, and the sequences of the C and F beta-strands and the CD and the FG loops in Table 10.

Binder | Kd | koff | kon
B1 | 0.554 nM | 6.07e-05 s⁻¹ | 110000 M⁻¹ s⁻¹
B2 | 0.309 nM | 5.02e-05 s⁻¹ | 162000 M⁻¹ s⁻¹
B3 | 0.0374 nM | 1.05e-05 s⁻¹ | 281000 M⁻¹ s⁻¹
B4 | 0.464 nM | 5.26e-05 s⁻¹ | 113000 M⁻¹ s⁻¹
B5 | 0.27 nM | 3.96e-05 s⁻¹ | 147000 M⁻¹ s⁻¹
B6 | 0.287 nM | 3.93e-05 s⁻¹ | 137000 M⁻¹ s⁻¹
B7 | 0.421 nM | 3.46e-05 s⁻¹ | 82000 M⁻¹ s⁻¹
B8 | 0.0482 nM | 2.11e-05 s⁻¹ | 438000 M⁻¹ s⁻¹
B9 | 0.0389 nM | 1.48e-05 s⁻¹ | 381000 M⁻¹ s⁻¹
B10 | ≤ 0.0952 nM | ≤ 1e-05 s⁻¹ | 105000 M⁻¹ s⁻¹
B11 | 0.0212 nM | 1.2e-05 s⁻¹ | 568000 M⁻¹ s⁻¹
B12 | 0.0531 nM | 2.17e-05 s⁻¹ | 408000 M⁻¹ s⁻¹

target: T1, mouse IL-17A; test: competition ELISA: purified His-tagged clone against biotinylated mIL-17A binding to coated mIL-17A receptor Fc
Description: An inhibition assay was performed to determine if the round 5 and 9 panning outputs against mouse IL-17A (mIL-17A) inhibited binding of mIL-17A to the mIL-17A receptor. Maxisorp plates were coated with 0.2 μg/ml mIL-17A receptor Fc fusion (R&D Systems, Minneapolis, Minn.) overnight, washed with Phosphate-Buffered Saline (PBS), pH 7.4 with 0.05% Tween-20 […] and blocked with 2% BSA, 5% Sucrose in PBS. 10 ng/ml biotinylated-mIL17A (b-mIL-17A) was added into the clarified bacterial lysates diluted 1:50 in 1% BSA in PBS, and the mixtures were incubated for 20 minutes. The blocked plates were washed and the bacterial lysates/b-mIL-17A incubations were transferred onto the plates. The plates were incubated for an additional hour, washed with PB ST, and the biotinylated protein detected with streptavidin-HRP (Jackson Immunoresearch, West Grove, Pa.) and OPD colorimetric substrate (Sigma-Aldrich, St. Louis, Mo.). Absorbance at 490 nm was read using an M5 plate reader (Molecular Devices, Sunnyvale, Calif.) and the data converted to % inhibition. Percent inhibition for mIL-17A:mIL-17 receptor binding was defined as 100−(sample/negative control×100).
Select bacterial lysates containing the scaffold molecules inhibiting the mIL-17A:mIL-17 receptor interaction were further characterized in a dose response inhibition assay using the protocol described above, except that 100 μl of purified TCL14-His (Ni-NTA) fusion proteins were used in the assays between concentrations of 10 μM to 56 pM. IC50 values were calculated from the dose response curves using a sigmoidal dose response fit.

Binder | IC50
B1 | 0.0912 nM
B2 | 0.00883 nM
B3 | 0.117 nM
B4 | 0.0642 nM
B5 | 0.0428 nM
B6 | 0.0339 nM
B7 | 0.0558 nM
B8 | 0.302 nM
B9 | 0.427 nM
B10 | 0.242 nM
B11 | 0.109 nM
B12 | 0.261 nM
